In the assay the target is human PD-1 expressed on cells (HuT78/PD-1, NK92MI/PD-1) (human, UniProt Q15116 25-288). Briefly: FACS binding (MFI). In general terms: Flow cytometry measures light scatter and fluorescence of single cells or particles in a stream.
Chain of human PD-1 expressed on cells (HuT78/PD-1, NK92MI/PD-1) (Q15116 25-288): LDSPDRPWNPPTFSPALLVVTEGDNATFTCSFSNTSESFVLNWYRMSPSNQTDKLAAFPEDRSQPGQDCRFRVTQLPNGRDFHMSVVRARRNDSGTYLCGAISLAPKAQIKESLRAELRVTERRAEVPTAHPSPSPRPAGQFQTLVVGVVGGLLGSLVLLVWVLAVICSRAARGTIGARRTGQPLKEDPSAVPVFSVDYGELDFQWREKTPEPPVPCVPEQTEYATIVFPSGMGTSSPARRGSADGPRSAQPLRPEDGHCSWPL

B1: murine mAb 317 (antibody, V domains shown)
VH: QVQLKESGPGLVAPSKNLSITCTVSGFSLTSYGVHWIRQPPGKGLEWLGVIWAGGSTNYNSALMSRLSISKDNSRSQVFLRMNSLQTDDTAMYYCARAYGNYWYIDVWGAGTTVTVSS
VL: DIVMTQTPKFLLVSAGDRVTITCKASQSVSNDVAWYQQKPGQSPKLLINYAFHRFTGVPDRFTGSGYGTDFIFTISTVQAEDLAVYFCHQAYSSPYTFGGGTKLEMK
Regarding B1, the EC50 (usually the concentration needed to bring the measured effect to its halfway point) worked out at 0.105 µg/mL.

The values are drawn from patent US20230303689A1 (published 2023).
